From patent US20220402995A1 (TOSOH, published 2022) come the findings set out here.

Residue numbers refer to the chain shown, from its start.

B1: AAV-binding protein No. 9 (Pro352Leu) (receptor)
chain: MGSAGESVQITLPKNEVQLNAYVLQEPPKGETYTYDWQLITHLRDYSGEMEGKHSQILKLSKLTPGLYEFKVIVEGQNAHGEGYVNVTVKPEPRKNRPPIAIVSPQFQEISLPTTSTVIDGSQSTDDDKIVQYHWEELKGPLREEKISEDTAILKLSKLVPGNYTFSLTVVDSDGATNSTTANLTVNKAVDHHHHHH
B2: AAV-binding protein No. 47 (Asn329Tyr, Tyr377Cys, Arg406Ser) (receptor)
chain: B1 chain with N20Y, L43P, Y68C, R97S
B3: AAV-binding protein No. 16 (Leu369Gln) (receptor)
chain: B1 chain with L43P, L60Q
B4: AAV-binding protein No. 53 (Asp354Gly, Leu369Gln, Lys455Arg) (receptor)
chain: B1 chain with L43P, D45G, L60Q, K146R
B5: AAV-binding protein No. 43 (Leu321Pro, Tyr342Asn, Ala461Ser) (receptor)
chain: B1 chain with L12P, Y33N, L43P, A152S
B6: AAV-binding protein No. 49 (Tyr331Cys, Thr343Met, Tyr355Cys) (receptor)
chain: B1 chain with Y22C, T34M, L43P, Y46C
B7: AAV-binding protein No. 45 (Asn329Asp, Tyr342His, Tyr355Cys) (receptor)
chain: B1 chain with N20D, Y33H, L43P, Y46C
B8: AAV-binding protein No. 30 (Glu340Gly, Tyr342Cys) (receptor)
chain: B1 chain with E31G, Y33C, L43P
B9: AAV-binding protein No. 29 (Leu333Val, Tyr342Cys) (receptor)
chain: B1 chain with L24V, Y33C, L43P
B10: AAV-binding protein No. 36 (Tyr355His, Asn387Ser) (receptor)
chain: B1 chain with L43P, Y46H, N78S
B11: AVR2 (AAV-binding protein No. 32, Tyr342Cys-Gly390Ser substitution product) (receptor)
chain: B1 chain with Y33C, L43P, G81S
B12: AVR8g (Val317Asp, Tyr342Cys, Lys362Glu, Lys371Asn, Gly390Ser, Lys399Glu, Ser476Arg, Asn487Asp) (receptor)
chain: B1 chain with V8D, Y33C, L43P, K53E, K62N, G81S, K90E, S167R, N178D
B13: AVR8a (Val317Asp, Asn324Asp, Tyr342Cys, Lys362Glu, Gly390Ser, Lys399Glu, Ser476Arg, Asn487Asp) (receptor)
chain: B1 chain with V8D, N15D, Y33C, L43P, K53E, G81S, K90E, S167R, N178D
B14: AAV-binding protein No. 100 (AVR5e + Asn324Asp, Lys362Glu, Val499Glu) (receptor)
chain: B1 chain with N15D, Y33C, L43P, K53E, G81S, K90E, S167R, N178D, V190E
B15: AVR5e (Tyr342Cys, Gly390Ser, Lys399Glu, Ser476Arg, Asn487Asp) (receptor)
chain: B1 chain with Y33C, L43P, G81S, K90E, S167R, N178D
B16: AAV-binding protein No. 97 (AVR5e + Val332Ala, Lys371Glu) (receptor)
chain: B1 chain with V23A, Y33C, L43P, K62E, G81S, K90E, S167R, N178D
B17: AAV-binding protein No. 102 (AVR5e + Leu328Pro, Lys362Asn, Thr397Ser, Arg406His) (receptor)
chain: B1 chain with L19P, Y33C, L43P, K53N, G81S, T88S, K90E, R97H, S167R, N178D
B18: AAV-binding protein No. 98 (AVR5e + Leu376Pro, Asn492Asp) (receptor)
chain: B1 chain with Y33C, L43P, L67P, G81S, K90E, S167R, N178D, N183D
B19: AAV-binding protein No. 99 (AVR5e + Gln318Pro, Phe379Tyr, Glu401Val) (receptor)
chain: B1 chain with Q9P, Y33C, L43P, F70Y, G81S, K90E, E92V, S167R, N178D
B20: AVR7b (AAV-binding protein No. 91; AVR5e + Val317Asp, Lys371Asn) (receptor)
chain: B1 chain with V8D, Y33C, L43P, K62N, G81S, K90E, S167R, N178D
B21: AAV-binding protein No. 101 (AVR5e + Val326Glu, Asn329His, Glu378Val) (receptor)
chain: B1 chain with V17E, N20H, Y33C, L43P, E69V, G81S, K90E, S167R, N178D
B22: AVR3 (AAV-binding protein No. 75; Tyr342Cys, Gly390Ser, Ser476Arg) (receptor)
chain: B1 chain with Y33C, L43P, G81S, S167R
B23: AVR4d (Tyr342Cys, Gly390Ser, Ser476Arg, Asn487Asp) (receptor)
chain: B1 chain with Y33C, L43P, G81S, S167R, N178D
B24: AVR4a (Ile319Phe, Tyr342Cys, Gly390Ser, Ser476Arg) (receptor)
chain: B1 chain with I10F, Y33C, L43P, G81S, S167R
B25: AVR5b (Ile319Phe, Lys323Glu, Tyr342Cys, Gly390Ser, Ser476Arg) (receptor)
chain: B1 chain with I10F, K14E, Y33C, L43P, G81S, S167R

The first assay deals with T1, VLP2 (virus-like particles of AAV2) (AAV2, UniProt P03135 1-735; P03135 1-598; P03135 1-533).
T1 construct: Empty AAV2 capsid; background says about 60 protein molecules, VP1:VP2:VP3 = 1:1:10; Immobilised on the ELISA plate
T1 sequence (P03135 whole entry, chain 1 of 3): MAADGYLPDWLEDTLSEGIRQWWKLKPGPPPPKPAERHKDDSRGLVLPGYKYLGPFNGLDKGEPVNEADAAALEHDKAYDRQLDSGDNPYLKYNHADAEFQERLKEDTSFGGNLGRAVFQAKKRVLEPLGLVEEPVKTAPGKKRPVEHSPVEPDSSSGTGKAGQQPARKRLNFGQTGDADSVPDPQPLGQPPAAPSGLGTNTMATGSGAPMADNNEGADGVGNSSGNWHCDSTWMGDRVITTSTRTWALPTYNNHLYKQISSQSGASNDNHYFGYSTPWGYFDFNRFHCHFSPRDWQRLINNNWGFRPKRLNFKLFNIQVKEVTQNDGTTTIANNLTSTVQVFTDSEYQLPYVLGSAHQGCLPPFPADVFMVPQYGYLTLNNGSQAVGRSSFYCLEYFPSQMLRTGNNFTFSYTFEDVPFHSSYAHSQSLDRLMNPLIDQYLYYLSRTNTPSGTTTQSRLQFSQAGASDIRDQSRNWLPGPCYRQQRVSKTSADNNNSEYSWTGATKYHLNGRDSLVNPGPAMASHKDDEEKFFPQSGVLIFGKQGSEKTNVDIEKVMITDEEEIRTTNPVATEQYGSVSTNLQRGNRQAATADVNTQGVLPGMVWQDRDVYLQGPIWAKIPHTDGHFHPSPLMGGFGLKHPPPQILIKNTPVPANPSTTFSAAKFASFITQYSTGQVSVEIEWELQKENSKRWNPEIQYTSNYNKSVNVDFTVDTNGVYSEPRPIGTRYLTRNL
T1 sequence (P03135 139-735, tags left off, chain 2 of 3): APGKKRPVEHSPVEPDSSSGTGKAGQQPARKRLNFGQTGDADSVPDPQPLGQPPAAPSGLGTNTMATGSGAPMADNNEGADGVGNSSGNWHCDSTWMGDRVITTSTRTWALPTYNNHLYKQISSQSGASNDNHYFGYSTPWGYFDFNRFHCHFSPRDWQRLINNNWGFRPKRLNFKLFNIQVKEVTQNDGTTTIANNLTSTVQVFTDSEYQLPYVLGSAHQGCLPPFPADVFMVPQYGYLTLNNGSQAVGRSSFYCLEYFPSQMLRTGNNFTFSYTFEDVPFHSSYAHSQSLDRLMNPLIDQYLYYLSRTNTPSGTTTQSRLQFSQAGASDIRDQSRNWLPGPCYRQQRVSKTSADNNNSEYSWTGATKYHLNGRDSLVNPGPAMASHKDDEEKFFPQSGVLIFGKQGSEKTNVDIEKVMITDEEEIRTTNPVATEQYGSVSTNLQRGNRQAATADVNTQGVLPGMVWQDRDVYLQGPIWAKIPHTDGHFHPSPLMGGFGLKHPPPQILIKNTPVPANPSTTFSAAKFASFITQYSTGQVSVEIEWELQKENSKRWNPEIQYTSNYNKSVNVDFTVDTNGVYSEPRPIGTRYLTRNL
T1 sequence (P03135 203-735, chain 3 of 3): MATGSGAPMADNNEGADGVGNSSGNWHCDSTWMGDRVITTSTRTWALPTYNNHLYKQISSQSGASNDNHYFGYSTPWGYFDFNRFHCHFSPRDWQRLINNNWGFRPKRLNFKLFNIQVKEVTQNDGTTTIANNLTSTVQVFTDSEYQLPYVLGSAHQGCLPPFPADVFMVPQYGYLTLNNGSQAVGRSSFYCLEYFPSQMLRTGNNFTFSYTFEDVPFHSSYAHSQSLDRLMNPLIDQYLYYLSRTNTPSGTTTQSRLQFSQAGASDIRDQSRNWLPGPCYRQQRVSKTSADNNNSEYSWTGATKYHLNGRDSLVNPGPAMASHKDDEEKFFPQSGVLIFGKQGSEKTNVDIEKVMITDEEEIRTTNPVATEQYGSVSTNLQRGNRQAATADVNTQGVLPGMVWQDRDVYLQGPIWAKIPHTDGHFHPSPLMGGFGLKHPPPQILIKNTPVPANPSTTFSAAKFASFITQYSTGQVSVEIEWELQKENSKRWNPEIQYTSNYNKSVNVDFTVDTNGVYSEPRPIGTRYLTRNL
The assay can be described thus: ELISA on VLP2; binding after 43°C 15 min / untreated.
Regarding B1, the “Residual activity [%]” value is 71.9%.
The same measure, in the same setting: then B2, with 92.7%; and B3, with 92.8%; and B4, with 90.5%.
On the same count and under the same terms, next, B5: 84.1%; B6: 97.7%.
The same measure, in the same setting: next, B7: 97.2%; B8: 91.3%; B9: 91.8%.
Take B10: the “Residual activity [%]” value came to 86.6%.
Still for that read-out and setting: then B11, with 97.6%.

In another assay the target is T1, VLP2 (virus-like particles of AAV2). The assay can be described thus: ELISA on VLP2; A450 after pH 3.0 80.8°C 15 min / 25°C. On the technique in general: An ELISA detects its analyte on a solid surface through an enzyme-linked reagent.
Experimental: (§1) (3) Each diluted mutated AAV-binding protein solution was divided into three portions, and each portion was mixed with an equal amount of 0.1 M glycine-HCl buffer (pH 3.0).
(§2) (4) The residual activity was calculated by dividing the absorbance at 450 nm when the heat treatment and acid treatment described in (3) were performed by the absorbance at 450 nm when standing still was performed at room temperature.
B12: the “Residual activity after heat treatment [%]” value was 67%.
As to B13, the “Residual activity after heat treatment [%]” value stood at 66%.

A further assay has the same target. The assay can be described thus: ELISA on VLP2; binding after pH 3.0 61.0°C 15 min / untreated.
Experimental: (3) The culture solution of (2) was centrifuged, and the obtained culture supernatant was diluted 32-fold with ultrapure water. The diluted culture solution in an amount of 60 μL and 60 μL of 0.1 M glycine hydrochloric acid buffer (pH 3.0) were mixed, and heat treatment and acid treatment were performed at 61.0° C. for 15 minutes.
(§3) The residual activity was calculated by dividing the binding activity of AAV-binding protein to VLP2 when the heat treatment was performed by the binding activity of AAV-binding protein to VLP2 when the heat treatment was not performed.
As to B14, the “Residual activity [%]” value was found to be 50.1%.
On the same count and under the same terms, next, B15: 25.5%.
The same measure, in the same setting: next, B16: 49.6%; B17: 41.1%; B18: 47.6%.
Still for that read-out and setting: then B19, with 54%; and B20, with 55.7%.
Take B21: the “Residual activity [%]” value turned out to be 48.5%.

Another assay has the same target. As to the kind of experiment: ELISA on VLP2; binding after pH 10.0 41.2°C 15 min / untreated.
With B12, the “Residual activity [%]” value stood at 23.1%.

The next assay shares this target. The assay can be described thus: ELISA on VLP2; binding after pH 3.0 51.1°C 15 min / untreated.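 Note: binding of the heat-treated AAV-binding protein to VLP2, expressed as a percentage of the binding of the same protein without heating.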
Experimental: as §3
With B22, the “Residual activity [%]” value amounted to 96.3%.
Same read-out and setting: next, B11: 25.5%.

The next assay has the same target. The assay can be described thus: ELISA on VLP2; A450 after pH 3.0 51.5°C 15 min / 25°C.
Experimental: (§4) (3) Each diluted mutated AAV-binding protein solution was divided into four portions, and each portion was mixed with an equal amount of 0.1 M glycine-HCl buffer (pH 3.0).
as §2
Regarding B23, the “Residual activity after heat treatment [%]” value is 66%.
On the same count and under the same terms, next, B24: 57%; B15: 77%; B22: 21%.
Same read-out and setting: next, B25: 87%.

A further assay has the same target. The assay can be described thus: ELISA on VLP2; A450 after pH 3.0 66.1°C 15 min / 25°C.
Experimental: as §4, §2
Regarding B23, the “Residual activity after heat treatment [%]” value stood at 18%.
Consider B24, for which the “Residual activity after heat treatment [%]” value was 8%.
B15: the “Residual activity after heat treatment [%]” value stood at 43%.
As to B22, the “Residual activity after heat treatment [%]” value stood at 2%.
As for B25, the “Residual activity after heat treatment [%]” value is 23%.

The target is the same in a further assay. As to the kind of experiment: ELISA on VLP2; A450 after 50.3°C 15 min / untreated.
B1: the “Residual activity [%]” value worked out at 49%.
B2: the “Residual activity [%]” value amounted to 64.5%.
On to B3, for which the “Residual activity [%]” value amounted to 32%.
On the same count and under the same terms, then B4, with 29.8%.
Still for that read-out and setting: next, B5: 55.6%.
Still for that read-out and setting: next, B6: 77.3%; B7: 66%; B8: 65.4%.
As to B9, the “Residual activity [%]” value stood at 66.7%.
Still for that read-out and setting: then B10, with 74.5%; and B11, with 76%.

For another assay the target is unchanged. The assay can be described thus: ELISA on VLP2; A450 after pH 2.5 30°C 24 h / untreated.
In the case of B1, the “Residual activity [%]” value was 5.6%.
The same measure, in the same setting: next, B2: 34.8%; B3: 10%; B4: 13.2%.
Regarding B5, the “Residual activity [%]” value was determined as 28.3%.
With B6, the “Residual activity [%]” value was 16.6%.
For the molecule B7, the “Residual activity [%]” value amounted to 47.6%.
Still for that read-out and setting: next, B8: 56.1%; B9: 40.2%.
On the same count and under the same terms, next, B10: 8.9%.
On the same count and under the same terms, then B11, with 64.7%.

For the next assay the target is unchanged. As to the kind of experiment: ELISA on VLP2; A450 after pH 3.0 60.1°C 15 min / 25°C.
Experimental: as §4, §2
On to B23, for which the “Residual activity after heat treatment [%]” value was determined as 35%.
Take B24: the “Residual activity after heat treatment [%]” value was determined as 16%.
Still for that read-out and setting: next, B15: 56%; B22: 3%.
Same read-out and setting: then B25, with 43%.

Another assay has the same target. As to the kind of experiment: ELISA on VLP2; A450 after pH 3.0 89.8°C 15 min / 25°C.
Experimental: Based on the absorption at 450 nm corresponding to the above measurement results, each culture supernatant obtained in (1) was diluted with pure water such that the measured values would be the same.
as §1, §2
Regarding B12, the “Residual activity after heat treatment [%]” value was 55%.
Still for that read-out and setting: then B13, with 52%.

A further assay has the same target. As to the kind of experiment: ELISA on VLP2; A450 after 66.1°C 15 min / untreated.
Turning to B1, the “Residual activity [%]” value was found to be 46.5%.
The same measure, in the same setting: next, B2: 58.7%; B3: 20.3%; B4: 23.5%.
As to B5, the “Residual activity [%]” value was found to be 56.3%.
The same measure, in the same setting: then B6, with 57.3%.
Still for that read-out and setting: then B7, with 46.7%.
Same read-out and setting: next, B8: 52.4%; B9: 54.5%.
In the case of B10, the “Residual activity [%]” value turned out to be 51%.
Still for that read-out and setting: then B11, with 70.5%.

The target is the same in a further assay. As to the kind of experiment: ELISA on VLP2; A450 after pH 2.5 30°C 2 h / untreated.
For B1, the “Residual activity [%]” value came to 17.6%.
Same read-out and setting: next, B2: 43.6%; B3: 17.3%; B4: 18.2%.
Take B5: the “Residual activity [%]” value came to 41.4%.
The same measure, in the same setting: next, B6: 52.8%; B7: 64.4%; B8: 70.5%.
Same read-out and setting: next, B9: 52.2%.
Still for that read-out and setting: then B10, with 16.1%; and B11, with 70.7%.
